Kd data for 1 molecule are collected here from PMC8826447 (2022).

This assay addresses ASF1 (Homo sapiens, UniProt Q9Y294).

Sequence of ASF1 (Q9Y294 whole entry): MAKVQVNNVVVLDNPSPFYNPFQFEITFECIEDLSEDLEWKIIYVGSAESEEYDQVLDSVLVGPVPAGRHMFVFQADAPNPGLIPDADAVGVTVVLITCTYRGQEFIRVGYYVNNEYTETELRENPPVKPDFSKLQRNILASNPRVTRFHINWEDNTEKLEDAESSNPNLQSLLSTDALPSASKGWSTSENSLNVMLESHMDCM

B1: TLK2 (protein)
chain: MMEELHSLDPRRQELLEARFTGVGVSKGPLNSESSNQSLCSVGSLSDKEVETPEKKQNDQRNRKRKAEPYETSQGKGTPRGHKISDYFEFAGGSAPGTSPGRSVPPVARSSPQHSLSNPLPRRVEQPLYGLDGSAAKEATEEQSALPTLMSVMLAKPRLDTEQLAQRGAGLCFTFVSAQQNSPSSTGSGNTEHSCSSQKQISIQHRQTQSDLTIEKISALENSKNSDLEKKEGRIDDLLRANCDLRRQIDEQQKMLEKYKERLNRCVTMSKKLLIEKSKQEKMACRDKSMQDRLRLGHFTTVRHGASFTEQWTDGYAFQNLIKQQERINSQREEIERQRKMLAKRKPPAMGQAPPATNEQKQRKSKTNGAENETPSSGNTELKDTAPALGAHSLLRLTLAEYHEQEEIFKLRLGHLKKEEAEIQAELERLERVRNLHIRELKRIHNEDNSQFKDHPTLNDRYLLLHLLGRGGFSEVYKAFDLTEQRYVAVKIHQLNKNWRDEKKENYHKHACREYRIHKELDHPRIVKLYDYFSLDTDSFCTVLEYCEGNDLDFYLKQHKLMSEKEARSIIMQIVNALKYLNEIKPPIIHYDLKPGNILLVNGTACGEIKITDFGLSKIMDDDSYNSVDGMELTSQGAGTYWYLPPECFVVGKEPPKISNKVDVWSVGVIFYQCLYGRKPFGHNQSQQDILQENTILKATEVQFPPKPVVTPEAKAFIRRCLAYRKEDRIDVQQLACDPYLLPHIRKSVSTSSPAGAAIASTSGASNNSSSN
B1: the Kd (commonly the equilibrium constant for the complex coming apart) is ~2000 nM.
